From US6942981 come the findings set out here.

Experiment [1] addresses T1, GST-DVL1 PDZ domain fusion protein (human).
T1 construct: also called human dishevelled segment polarity protein homolog; not shown: glutathione S-transferase (GST) encoded by pGEX-3X
T1 chain: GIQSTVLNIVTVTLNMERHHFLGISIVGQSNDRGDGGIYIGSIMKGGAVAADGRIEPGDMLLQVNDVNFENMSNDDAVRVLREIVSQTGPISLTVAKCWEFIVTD
In words: A/G assays.

Experiment [2] deals with T2, GST-AF6 PDZ domain fusion protein (Homo sapiens (Human), UniProt P55196 1001-1093).
T2 construct: also called af-6 protein; not shown: glutathione S-transferase (GST) encoded by pGEX-3X
T2 sequence: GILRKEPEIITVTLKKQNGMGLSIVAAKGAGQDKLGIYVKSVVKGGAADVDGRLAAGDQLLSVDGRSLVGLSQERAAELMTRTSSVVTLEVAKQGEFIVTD
The experiment is described as follows: A/G assays.

Experiment [3] has as its target T3, GST-CASK PDZ domain fusion protein (mouse, UniProt O14936 485-575 (human entry)).
T3 sequence: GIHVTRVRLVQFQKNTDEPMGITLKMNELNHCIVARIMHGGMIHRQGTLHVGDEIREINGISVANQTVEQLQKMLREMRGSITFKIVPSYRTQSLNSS
In words: A/G assays.

In experiment [4] the target is T4, GST-NeDLG PDZ domains 1-2 fusion protein (Mus musculus (Mouse), UniProt P70175 147-332).
T4 construct: also called NeDLG1; not shown: glutathione S-transferase (GST) encoded by pGEX-3X
T4 chain: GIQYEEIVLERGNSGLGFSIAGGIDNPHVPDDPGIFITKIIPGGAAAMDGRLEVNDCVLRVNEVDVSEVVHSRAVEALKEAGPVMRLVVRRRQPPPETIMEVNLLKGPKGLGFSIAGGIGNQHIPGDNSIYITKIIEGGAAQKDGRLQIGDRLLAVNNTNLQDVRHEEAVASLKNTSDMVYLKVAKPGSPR
The experiment is described as follows: A/G assays.

Experiment [5] deals with T5, GST-TAX2 PDZ domain fusion protein (human, UniProt O14908 129-216).
T5 construct: not shown: glutathione S-transferase (GST) encoded by pGEX-3X
T5 chain: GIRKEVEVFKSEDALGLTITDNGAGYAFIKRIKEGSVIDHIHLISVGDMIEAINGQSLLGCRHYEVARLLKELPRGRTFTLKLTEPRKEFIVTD
In words: A/G assays.

Experiment [6] concerns the target T6, GST-LIMK2 PDZ domain fusion protein (human, UniProt P53671 147-237).
T6 construct: also called human LIM domain kinase 2; not shown: glutathione S-transferase (GST) encoded by pGEX-3X
T6 sequence: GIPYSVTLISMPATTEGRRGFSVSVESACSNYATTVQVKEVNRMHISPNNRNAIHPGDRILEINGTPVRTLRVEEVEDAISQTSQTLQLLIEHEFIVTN
The experiment is described as follows: A/G assays.

Experiment [7] deals with T7, GST-TAX43 PDZ domain fusion protein (human, UniProt Q13884 109-180).
T7 construct: not shown: glutathione S-transferase (GST) encoded by pGEX-3X
T7 sequence: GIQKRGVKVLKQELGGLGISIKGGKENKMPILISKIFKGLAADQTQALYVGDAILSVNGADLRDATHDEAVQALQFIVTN
In words: A/G assays.

For experiment [8], the target named is T8, GST-MPP2 PDZ domain fusion protein.
T8 construct: also called maguk p55 subfamily member 2 (DLG2); MMP2; not shown: glutathione S-transferase (GST) encoded by pGEX-3X
T8 chain: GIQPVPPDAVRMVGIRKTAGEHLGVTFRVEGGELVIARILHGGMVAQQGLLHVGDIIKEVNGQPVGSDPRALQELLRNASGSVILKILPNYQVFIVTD
In words: A/G assays.

Experiment [9] has as its target T9, GST-PSD95 PDZ domains 1-3 fusion protein (human, UniProt P31016 58-395 (rat entry)).
T9 construct: not shown: glutathione S-transferase (GST) encoded by pGEX-3X
The experiment is described as follows: A assay.

Experiment [10] deals with T4, GST-NeDLG PDZ domains 1-2 fusion protein. The experiment is described as follows: G assay.

Ends that are not written are not given here. * marks the point of attachment. Biotin = O=C1N[C@H]2[C@H](CS[C@H]2CCCCC(=O)*)N1

T9 sequence (P31016 other isoform, or with tags, fused parts or gaps): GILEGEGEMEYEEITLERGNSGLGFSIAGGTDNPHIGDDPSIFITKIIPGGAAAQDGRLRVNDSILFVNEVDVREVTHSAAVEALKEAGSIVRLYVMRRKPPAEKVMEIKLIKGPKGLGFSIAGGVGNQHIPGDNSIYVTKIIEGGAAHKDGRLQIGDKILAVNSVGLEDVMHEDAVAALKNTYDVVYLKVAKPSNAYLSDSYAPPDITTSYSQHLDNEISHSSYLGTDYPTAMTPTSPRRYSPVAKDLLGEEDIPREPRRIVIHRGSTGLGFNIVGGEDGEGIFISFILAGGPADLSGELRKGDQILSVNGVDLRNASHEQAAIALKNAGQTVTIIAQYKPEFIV

Regarding Biotin-TIYENLAPVTTFGKTIA [CD148 peptide AA55L (ending KTIA)], the binding result in experiment [1], in experiment [2], in experiment [3], in [4], in experiment [5] and in [6] was “no binding” in each case. The binding result in experiment [7] and in [8] was “no binding” throughout.

As for Biotin-QATSRNGHSARQHVVADTEL [CD34 C-terminal peptide AA7L], the binding result in experiment [9] is “binds”; in experiment [10], “binds”; in [1], “no binding”; in [2], “no binding”; in experiment [3] it was “no binding”; in experiment [5], “no binding”. Further, the binding result in experiment [6], in [7] and in [8] was “no binding” in each case.
